Laboratory results from patent publication US11299518B2, “Fusion respiratory syncytial virus inhibitors and use thereof” (priority 2016, dated 2022).
“And” between values parts separate entries of the source, which are not always exact repeats. Equal entries are not always repeated. Numbered stars: 1 amine (or outer) side, 2 acyl side, 3 side chain; on linkers, the order of the positions; unused ones are H or OH. Bridge positions count the residues as written; N and C are the ends. Square brackets hold non-standard residues; d marks the D form. Peptide text beside a SMILES is read from it. Nle(6-ylidene) = O=C([C@H](CCCC=[*:3])N[*:1])[*:2]; tBuAla = CC(C)(C)C[C@H](N)C(=O)O; R5 = C=CCCC[C@@](C)(N)C(=O)O; S5 = C=CCCC[C@](C)(N)C(=O)O

How the values were obtained:
[1] = CD spectroscopy, percentage of helicity; format: physicochemical; details: CD at 222 nm, 10 mM phosphate buffer pH 7.5, 50 μM peptide, 25° C.
Protocol: The secondary structure of the peptides was then characterized by circular dichroism (DC) as described below.
The circular dichroism spectra were acquired on a Jasco J-810 and on a Chirascan spectropolarimeter. The samples were prepared in 10 mM phosphate buffer, pH 7.5, at a peptide concentration of 50 μM. Data were recorded at 25° C. by stepscan from 180 nm to 260 nm in a 0.1 cm pathlength quartz cell using 0.2 nm wavelength increments, 1 nm bandwidth and a response time of 0.5 sec. Each spectrum was an average of three measurements and was subtracted from buffer baseline. The data were converted to per residue molar ellipticity units [θ] (deg·cm2·dmol−1·residue−1) and smoothed using the Igor software. The percentage of helicity was calculated as it follows:
[formula] whereby CD222=molar ellipticity at 222 nm in [mdeg], N=number of amino acids in the peptide and C=peptide molar concentration [mol/l].

circular dichroism = details: 10 mM phosphate; pH 7.5; 25 °C; 50 uM

Row | Compound | % helicity [1] | helicity (circular dichroism) [%]
1 | CC[C@H](C)[C@@H]1NC(=O)[C@H](Cc2ccccc2)NC(=O)[C@@](C)(NC(=O)[C@H](CC(C)C)NC(=O)[C@H](CO)NC(=O)[C@]2(C)CCCC=CCCC[C@@](C)(NC(=O)[C@H](CCC(=O)O)NC(C)=O)C(=O)N[C@@H]([C@@H](C)CC)C(=O)N[C@@H](CC(N)=O)C(=O)N2)CCCC=CCCC[C@@](C)(C(=O)N[C@@H](CO)C(=O)N[C@@H](CC(=O)O)C(=O)N[C@@H](CCC(=O)O)C(=O)N[C@@H](CC(C)C)C(=O)N[C@@H](CC(C)C)C(=O)N[C@@H](Cc2c[nH]cn2)C(N)=O)NC(=O)[C@H](CCCNC(=N)N)NC1=O [Peptide 4ca18, E Xaa2 IN Xaa5 SL Xaa8 FIR Xaa12 SDELLH] (Ac-E[R5]IN[S5]SL[S5]FIR[S5]SDELLH-NH2; staple 2-5, 8-12) | 43% | 43
2 | EQSLAFIRKSDELLHNV (comparative peptide 3) [non-stapled native comparative peptide, reference compound] | 5.9% and 6.6% | –
3 | CC[C@H](C)[C@@H]1NC(=O)[C@H](Cc2ccccc2)NC(=O)[C@@H](NC(=O)[C@H](CC(C)C)NC(=O)[C@H](CO)NC(=O)[C@@H]2CCCC=CCCC[C@@](C)(NC(=O)[C@H](CCC(=O)O)NC(C)=O)C(=O)N[C@@H]([C@@H](C)CC)C(=O)N[C@@H](CC(N)=O)C(=O)N2)CCCC=CCCC[C@@H](C(=O)N[C@@H](CO)C(=O)N[C@@H](CC(=O)O)C(=O)N[C@@H](CCC(=O)O)C(=O)N[C@@H](CC(C)C)C(=O)N[C@@H](CC(C)C)C(=O)N[C@@H](Cc2c[nH]cn2)C(=O)N[C@@H](CC(N)=O)C(=O)N[C@H](C(N)=O)C(C)C)NC(=O)[C@H](CCCNC(=N)N)NC1=O [Peptide 4ca2] (Ac-E[R5]IN[Nle(6-ylidene)]SL[Nle(6-ylidene)]FIR[Nle(6-ylidene)]SDELLHNV-NH2; staple 2-5, 8-12) | 58.1% | 58.1
4 | CC[C@H](C)[C@@H]1NC(=O)[C@H](Cc2ccccc2)NC(=O)[C@@](C)(NC(=O)[C@H](CC(C)C)NC(=O)[C@H](CO)NC(=O)[C@]2(C)CCCC=CCCC[C@@](C)(NC(=O)[C@H](CCC(=O)O)NC(C)=O)C(=O)N[C@@H]([C@@H](C)CC)C(=O)N[C@@H](CC(N)=O)C(=O)N2)CCCC=CCCC[C@@](C)(C(=O)N[C@@H](CO)C(=O)N[C@@H](CC(=O)O)C(=O)N[C@@H](CCC(=O)O)C(=O)N[C@@H](CC(C)(C)C)C(=O)N[C@@H](CC(C)C)C(=O)N[C@@H](Cc2c[nH]cn2)C(N)=O)NC(=O)[C@H](CCCNC(=N)N)NC1=O [Peptide 4ca-var8, E Xaa2 IN Xaa5 SL Xaa8 FIR Xaa12 SDE Xaa16LH] (Ac-E[R5]IN[S5]SL[S5]FIR[S5]SDE[tBuAla]LH-NH2; staple 2-5, 8-12) | 75.8% | 75.8
5 | CC[C@H](C)[C@H](NC(=O)[C@H](CCCCN)NC(=O)[C@H](CCC(=O)O)NC(C)=O)C(=O)N[C@@H](CC(N)=O)C(=O)N[C@@H](CCC(N)=O)C(=O)N[C@@H](CO)C(=O)N[C@@H](CC(C)C)C(=O)N[C@H]1CCCC=CCCC[C@@H](C(=O)N[C@@H](CO)C(=O)N[C@@H](CC(=O)O)C(=O)N[C@H]2CCCC=CCCC[C@@H](C(=O)N[C@H](C(N)=O)C(C)C)NC(=O)[C@H](Cc3c[nH]cn3)NC(=O)[C@H](CC(C)C)NC(=O)[C@H](CC(C)C)NC2=O)NC(=O)[C@H](CCCNC(=N)N)NC(=O)[C@H]([C@@H](C)CC)NC(=O)[C@H](Cc2ccccc2)NC1=O (Ac-EKINQSL[Nle(6-ylidene)]FIR[Nle(6-ylidene)]SD[Nle(6-ylidene)]LLH[Nle(6-ylidene)]V-NH2; staple 8-12, 15-19) | – | 46
6 | EKI Xaa4 Q A L Xaa8 FI Xaa11 KSD Xaa15 LLHNV (Ac-EKI[S5]QAL[S5]FI[S5]KSD[S5]LLHNV-NH2; staple 11-15, 4-8 (inferred)) [Peptide V4bb502] | 15% | –
7 | EFPS X486 EFD X490 SI X493 QVN X497 KIN (EFPSXEFDXSIXQVNXKIN; not fully specified; (S)-2-(4-pentenyl)alanine residues, likely stapled; comparative peptide 1eg; (1)..(1) N-term acetylated; (5)..(5) (S)-2-(4-pentenyl)alanine; (9)..(9) (S)-2-(4-pentenyl)alanine; (12)..(12) (S)-2-(4-pentenyl)alanine; (16)..(16) (S)-2-(4-pentenyl)alanine; (19)..(19) C-term amidated) [comparative peptide; X486, X490, X493 and X497 are (S)-2-(4-pentenyl)alanine, reference compound] | 35.3% | –
8 | EKA Xaa4 QSL Xaa8 FI Xaa11 KSD Xaa15 LLHNV (Ac-EKA[S5]QSL[S5]FI[S5]KSD[S5]LLHNV-NH2; staple 11-15, 4-8 (inferred)) [Peptide V4bb499] | 24% | –
9 | Ac-FDASISQVNEKINQSLAFIRKSDELLHNVNAGKST-NH2 (N-terminus and C-terminus assumed) [Peptide T118, reference compound] | 23.4% | –
10 | EKINQSL Xaa8 FIR Xaa12 SD Xaa15 LLH Xaa19 V (Ac-EKINQSL[(S)‑2‑(4-pentenyl)glycine]FIR[(S)‑2‑(4-pentenyl)glycine]SD[(S)‑2‑(4-pentenyl)glycine]LLH[(S)‑2‑(4-pentenyl)glycine]V-NH2; staple 8-12, 15-19 (inferred); not fully specified; printed as EKINQSL Xaa8 FIR Xaa12 SD Xaa15 LLH Xaa19 V) [Peptide 4a2, Xaa8, Xaa12, Xaa15 and Xaa19 are (S)-2-(4-pentenyl)glycine; Formula (C7)] | 46% | –
11 | EKI Xaa4 A SL Xaa8 FI Xaa11 KSD Xaa15 LLHNV (Ac-EKI[S5]ASL[S5]FI[S5]KSD[S5]LLHNV-NH2; staple 11-15, 4-8 (inferred)) [Peptide V4bb501] | 12% | –
12 | CC[C@H](C)[C@@H]1NC(=O)[C@H](Cc2ccccc2)NC(=O)[C@@](C)(NC(=O)[C@H](CC(C)C)NC(=O)[C@H](CO)NC(=O)[C@]2(C)CCCC=CCCC[C@@](C)(NC(C)=O)C(=O)N[C@@H]([C@@H](C)CC)C(=O)N[C@@H](CC(N)=O)C(=O)N2)CCCC=CCCC[C@@](C)(C(=O)N[C@@H](CO)C(=O)N[C@@H](CC(=O)O)C(=O)N[C@@H](CCC(=O)O)C(=O)N[C@@H](CC(C)C)C(=O)N[C@@H](CC(C)C)C(N)=O)NC(=O)[C@H](CCCNC(=N)N)NC1=O [Peptide 4ca16, X498 IN X501 SL X504 FIR X508 SDELL] (Ac-[R5]IN[S5]SL[S5]FIR[S5]SDELL-NH2; staple 1-4, 7-11) | >100% | –
